Target: ATP synthase subunit c (bovine), P32876
Conditions: remark: other sources report otherwise

stoichiometry N: 8
B1: ATP synthase subunit c, P32876 62-136 (natural protein)
chain: DIDTAAKFIGAGAATVGVAGSGAGIGTVFGSLIIGYARNPSLKQQLFSYAILGFALSEAMGLFCLMVAFLILFAM
modifications: here or on the partner: trimethyllysine at position 43; trimethyllysine at position 43

Source: paper PMC7519299
